{
  "source": "patent US20150239954",
  "proteins": {"B1": {"name": "aspergillopepsin II (An01g00530) (protein)", "chain": "EDYSSNWAGAVLIGDGYTKVTGEFTVPSVSAGSSSSSGYGGGYGYYKNKRQSEEYCASAWVGIDGDTCETAILQTGVDFCYEDGQTSYDAWYEWYPDYAYDFNDITISEGDTIKVTVEATSKSSGSATVENLTTGQSVTHTFSGNVEGDLCETNAEWIVEDFESGDSLVAFADFGSVTFTNAEATSDGSTVGPSDATVMDIEQDGTVLTETSVSGDSVTVTYV"}},
  "target": "T1, E(Edans)-AAHisAAK-(Dabsyl)-NH2 (not fully specified)",
  "T1 chain": "AAHAAK",
  "data": [
    {"protein": "B1", "values": [
      {"measurement": "enzyme activity in relative fluorescent units (rfu) per minute per mg of protein; cleavage of FRET peptide substrates at pH 4", "value": "yields the highest rfu value for aspergillopepsin II"}
    ]}
  ]
}
